In one data set the target is HA:AvrBsT (Xanthomonas euvesicatoria, UniProt A0ABS8LK00). Format: biochemical.
The next data set has as its target T1, AtTIPSY1 (Arabidopsis thaliana, UniProt Q8GYK2).
T1 sequence (Q8GYK2 1-262): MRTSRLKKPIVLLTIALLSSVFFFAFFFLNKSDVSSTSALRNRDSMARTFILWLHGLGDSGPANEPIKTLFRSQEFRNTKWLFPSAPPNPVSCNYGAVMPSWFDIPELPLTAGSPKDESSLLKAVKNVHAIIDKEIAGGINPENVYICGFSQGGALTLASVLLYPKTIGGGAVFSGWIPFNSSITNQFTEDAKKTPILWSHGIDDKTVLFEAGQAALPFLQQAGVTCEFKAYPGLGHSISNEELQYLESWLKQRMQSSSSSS
In words: colorimetric p-nitrophenol release at […] nm. The data set is classed as biochemical. Conditions: 20 mM HEPES, 150 mM NaCl, pH 7.52-7.55, 0.01% Triton X-100, room temperature.

In data set [1] the test system is CCCC(=O)Oc1ccc([N+](=O)[O-])cc1. In words: purified protein. The settings on record: 20 mM HEPES, 150 mM NaCl, pH 7.52-7.55, 0.01% Triton X-100, room temperature; pH 7.0.
Data set [2] has as its system CC(=O)Oc1ccc([N+](=O)[O-])cc1. Put plainly: purified protein. The settings on record: 20 mM HEPES, 150 mM NaCl, pH 7.52-7.55, 0.01% Triton X-100, room temperature; pH 7.0.
Data set [3] concerns CCCCC(=O)Oc1ccc([N+](=O)[O-])cc1. Put plainly: purified protein. Conditions: 20 mM HEPES, 150 mM NaCl, pH 7.52-7.55, 0.01% Triton X-100, room temperature; pH 7.0.
Substrate in data set [4]: CCCC(=O)Oc1ccc([N+](=O)[O-])cc1
Put plainly: purified protein. Conditions: 20 mM HEPES, 150 mM NaCl, pH 7.52-7.55, 0.01% Triton X-100, room temperature; pH 7.0. This is another data set of the same source.

Substrate in data set [5]: CC(=O)Oc1ccc([N+](=O)[O-])cc1
Put plainly: purified protein. Conditions: 20 mM HEPES, 150 mM NaCl, pH 7.52-7.55, 0.01% Triton X-100, room temperature; pH 7.0. This is another data set of the same source.

Substrate in data set [6]: CCCCC(=O)Oc1ccc([N+](=O)[O-])cc1
In words: purified protein. Conditions: 20 mM HEPES, 150 mM NaCl, pH 7.52-7.55, 0.01% Triton X-100, room temperature; pH 7.0. This is another data set of the same source.

Results on seven molecules are retold here after PMC5736716, “A hydrophobic anchor mechanism defines a deacetylase family that suppresses host response against YopJ effectors” (Nature Communications, 2017).

As to `CC(=O)SCCNC(=O)CCNC(=O)[C@H](O)C(C)(C)COP(=O)(O)OP(=O)(O)OC[C@H]1O[C@@H](n2cnc3c(N)ncnc32)[C@H](O)[C@@H]1OP(=O)(O)O` [[Acetyl-1-^14C]-Acetyl Coenzyme A], on HA:AvrBsT, the “autoradiography of auto-acetylation on anti-HA beads” value is “led to auto-acetylation of the wild type protein, but not the enzymatically inactive mutant”.
Turning to `CCCCCC(=O)Oc1ccc([N+](=O)[O-])cc1` [pNP hexanoate], the Michaelis-Menten parameters entry on AtTIPSY1 was “allowed the protein to hydrolyze para-nitrophenyl hexanoate, like AtTIPSY1 is able to”.
What is called Km is the concentration of substrate that gives half-maximal velocity. Consider AtSOBER1 (Arabidopsis thaliana; F65L), for which, in data set [1], the Michaelis-Menten constant (Km) is given as 4.80 ± 0.23 × 10^-5 M and the kcat is recorded as 1.10 ± 0.18 × 10^1 s-1. Moreover, in data set [2], the Km is reported as 3.12 ± 0.44 × 10^-4 M and the kcat is recorded as 1.88 ± 0.23 × 10^2 s-1.
As for AtSOBER1 (Arabidopsis thaliana; L63A), the Michaelis-Menten constant (Km) in data set [3] came to 4 µM; in data set [1] it was 30 µM; in data set [2], 6 mM.
For AtTIPSY1 (Arabidopsis thaliana; L110F), in data set [2], the Km is 1.75 ± 0.33 × 10^-3 M and the kcat was 4.82 ± 0.32 × 10^2 s-1.

B1: AtTIPSY1 (Arabidopsis thaliana) (protein)
chain: T1 sequence (Q8GYK2 1-262)
As for B1, the Km is 5.03 ± 0.41 × 10^-4 M in the data set “purified protein [4]”, 1.75 ± 0.18 × 10^-3 M in the data set “purified protein [5]” and 3.07 ± 0.29 × 10^-4 M in the data set “purified protein [6]”. Also, the kcat in the data set “purified protein [6]” was 6.46 ± 0.39 × 10^1 s-1.

B2: AtSOBER1 (Arabidopsis thaliana) (protein)
chain: MARTFILWLHGLGDSGPANEPIQTQFKSSELSNASWLFPSAPFNPVTCNNGAVMRSWFDVPELPFKVGSPIDESSVLEAVKNVHAIIDQEIAEGTNPENVFICGLSQGGALTLASVLLYPKTLGGGAVLSGWVPFTSSIISQFPEEAKKTPILWSHGTDDRMVLFEAGQAALPFLKEAGVTCEFKAYPGLGHSISNKELKYIESWIKRRLKGSSSTCLQLNCLKEMFH
As to B2, the Km in the data set “purified protein [4]” came out at 227 µM; in the data set “purified protein [5]”, 158 µM; in “purified protein [6]” it was 327 µM.
